± gives the uncertainty stated by the source.
B1: Telomeric repeat-binding factor 2, residues 489 to 542; numbered along this chain, Q15554 (parent)
chain: KQKWTVEESEWVKAGVQKYGEGNWAAISKNYPFVNRTAVMIKDRWRTMKRLGMN

Variants of: B1
Experiment: abundance fitness (aPCA) (normalised: wild type 0, dead -1); higher = more abundant; growth selection in yeast, the domain comes from the species named
Conditions: Homo sapiens

Question: With T5K as the variant, how does the abundance fitness read?
Answer: -0.161 ± 0.17

Question: Which abundance fitness does the source give for T5R here?
Answer: -0.557 ± 0.051

Question: Which abundance fitness does the source give for T5M here?
Answer: -0.21 ± 0.088

Question: For T5F, which abundance fitness is on record?
Answer: -0.826 ± 0.11

Question: Which abundance fitness does the source give for T5G here?
Answer: -0.421 ± 0.14

Question: For T5I, which abundance fitness is on record?
Answer: -0.669 ± 0.31

Question: For T5L, which abundance fitness is on record?
Answer: -0.75 ± 0.13

Question: Which abundance fitness does the source give for E8K here?
Answer: -1 ± 0.36

Question: For E8A, which abundance fitness is on record?
Answer: -0.381 ± 0.072

Question: For E8P, which abundance fitness is on record?
Answer: -0.598 ± 0.12

Question: With E8S as the variant, how does the abundance fitness read?
Answer: -0.65 ± 0.064

Question: With E8N as the variant, how does the abundance fitness read?
Answer: -0.707 ± 0.37

Question: With E8L as the variant, how does the abundance fitness read?
Answer: -0.19 ± 0.062

Question: For E8Q, which abundance fitness is on record?
Answer: -0.566 ± 0.19

Question: For E8G, which abundance fitness is on record?
Answer: -0.394 ± 0.099

Question: With E8I as the variant, how does the abundance fitness read?
Answer: -0.339 ± 0.099

Question: With E8T as the variant, how does the abundance fitness read?
Answer: -0.485 ± 0.15

Question: With E8W as the variant, how does the abundance fitness read?
Answer: -0.153 ± 0.048

Question: With E8V as the variant, how does the abundance fitness read?
Answer: -0.596 ± 0.12

Question: Which abundance fitness does the source give for E8Y here?
Answer: 0.233 ± 0.13

Question: With E8M as the variant, how does the abundance fitness read?
Answer: -0.238 ± 0.12

Question: With E8R as the variant, how does the abundance fitness read?
Answer: -0.638 ± 0.091

Question: For S9L, which abundance fitness is on record?
Answer: -0.31 ± 0.091

Question: For S9A, which abundance fitness is on record?
Answer: -0.219 ± 0.078

Question: Which abundance fitness does the source give for S9C here?
Answer: -0.343 ± 0.11

Question: Which abundance fitness does the source give for S9R here?
Answer: -0.671 ± 0.096

Question: Which abundance fitness does the source give for S9I here?
Answer: -0.021 ± 0.091

Question: Which abundance fitness does the source give for S9W here?
Answer: -0.335 ± 0.082

Question: For S9T, which abundance fitness is on record?
Answer: -0.15 ± 0.13

Question: With S9V as the variant, how does the abundance fitness read?
Answer: -0.483 ± 0.11

Question: Which abundance fitness does the source give for S9N here?
Answer: 0.107 ± 0.052

Question: With S9M as the variant, how does the abundance fitness read?
Answer: 0.39 ± 0.11

Question: With S9Y as the variant, how does the abundance fitness read?
Answer: -0.481 ± 0.15

Question: For S9G, which abundance fitness is on record?
Answer: -0.354 ± 0.058

Question: For V6T, which abundance fitness is on record?
Answer: -0.115 ± 0.16

Question: With V6R as the variant, how does the abundance fitness read?
Answer: 0.03 ± 0.054

Question: With V6F as the variant, how does the abundance fitness read?
Answer: 0.031 ± 0.15

Question: For V6M, which abundance fitness is on record?
Answer: -0.768 ± 0.29

Question: Which abundance fitness does the source give for V6W here?
Answer: -0.063 ± 0.076

Question: For V6N, which abundance fitness is on record?
Answer: -0.433 ± 0.23

Question: For V6Y, which abundance fitness is on record?
Answer: 0.192 ± 0.082

Question: For V6I, which abundance fitness is on record?
Answer: 0.005 ± 0.046

Question: Which abundance fitness does the source give for V6A here?
Answer: 0.291 ± 0.085

Question: Which abundance fitness does the source give for V6G here?
Answer: -0.253 ± 0.061

Question: For V6E, which abundance fitness is on record?
Answer: -0.007 ± 0.094

Question: Which abundance fitness does the source give for V6H here?
Answer: 0.298 ± 0.11

Question: With V6S as the variant, how does the abundance fitness read?
Answer: -0.024 ± 0.089

Question: Which abundance fitness does the source give for V6K here?
Answer: 0.171 ± 0.048

Question: With V6D as the variant, how does the abundance fitness read?
Answer: 0.059 ± 0.12

Question: Which abundance fitness does the source give for V6C here?
Answer: 0.07 ± 0.11

Question: Which abundance fitness does the source give for E7Q here?
Answer: -0.075 ± 0.12

Question: Which abundance fitness does the source give for E7F here?
Answer: -0.47 ± 0.046

Question: For E7W, which abundance fitness is on record?
Answer: -0.443 ± 0.078

Question: For E7V, which abundance fitness is on record?
Answer: -0.459 ± 0.083

Question: For E7I, which abundance fitness is on record?
Answer: -0.427 ± 0.2

Question: Which abundance fitness does the source give for E7N here?
Answer: -0.721 ± 0.33

Question: With E7Y as the variant, how does the abundance fitness read?
Answer: -0.329 ± 0.07

Question: For E7G, which abundance fitness is on record?
Answer: -0.834 ± 0.11

Question: With E7L as the variant, how does the abundance fitness read?
Answer: -0.258 ± 0.068

Question: With E7D as the variant, how does the abundance fitness read?
Answer: -0.141 ± 0.09

Question: For E7S, which abundance fitness is on record?
Answer: -0.67 ± 0.13

Question: Which abundance fitness does the source give for E7R here?
Answer: -0.221 ± 0.08

Question: For E7M, which abundance fitness is on record?
Answer: -0.015 ± 0.11

Question: With E7A as the variant, how does the abundance fitness read?
Answer: -0.242 ± 0.063

Question: With E7P as the variant, how does the abundance fitness read?
Answer: -0.401 ± 0.055

Question: For E7H, which abundance fitness is on record?
Answer: -0.377 ± 0.28

Question: For E7T, which abundance fitness is on record?
Answer: -0.196 ± 0.091

Question: Which abundance fitness does the source give for E7C here?
Answer: -0.607 ± 0.2

Question: For Q2E, which abundance fitness is on record?
Answer: 0.254 ± 0.36

Question: With Q2G as the variant, how does the abundance fitness read?
Answer: -0.163 ± 0.068

Question: Which abundance fitness does the source give for Q2L here?
Answer: -0.017 ± 0.067

Question: Which abundance fitness does the source give for Q2I here?
Answer: 0.29 ± 0.29

Question: With Q2S as the variant, how does the abundance fitness read?
Answer: -0.175 ± 0.14

Question: With Q2D as the variant, how does the abundance fitness read?
Answer: 0.184 ± 0.07

Question: With Q2H as the variant, how does the abundance fitness read?
Answer: 0.518 ± 0.13

Question: Which abundance fitness does the source give for Q2A here?
Answer: -0.138 ± 0.1

Question: With Q2F as the variant, how does the abundance fitness read?
Answer: 0.725 ± 0.2

Question: Which abundance fitness does the source give for Q2P here?
Answer: -0.981 ± 0.28

Question: With Q2V as the variant, how does the abundance fitness read?
Answer: 0.271 ± 0.093

Question: For Q2W, which abundance fitness is on record?
Answer: -0.34 ± 0.14

Question: Which abundance fitness does the source give for Q2N here?
Answer: 0.333 ± 0.37

Question: With Q2M as the variant, how does the abundance fitness read?
Answer: -0.191 ± 0.29

Question: For Q2C, which abundance fitness is on record?
Answer: -0.248 ± 0.16

Question: For Q2R, which abundance fitness is on record?
Answer: -0.202 ± 0.082

— the Human Domainome abundance scans (Beltran et al. 2025)
